Assays:
[1] = system: meditope enabled antibody trastuzumab; assay: SPR analysis of BVM and TVM gel filtration fractions; type: binding; conditions: BVM fractions 26-29, TVM fractions 21-23
[2] = system: Raji-B cells; assay: pHrodo-labeled CD-19 antibody internalization, fluorescence microscopy, Raji-B; type: cell-based, human; conditions: 100 nM antibody with or without 100 nM meditope-Fc, 30 minutes, 37° C., n=8
Procedure: Raji-B cells, a human B lymphocyte cell line derived from human lymphoblast, CCL-86™, ATCC®, were stained for fluorescence microscopy to determine receptor-mediated endocytosis rates of the pHrodo™-labeled CD-19 antibody. Cells were stained in Nunc® Lab-Tek® II chambered 8 well coverglass polystyrene chambers (0.7 cm^2/well). Cells were stained using either 100 nM antibody and 100 nM of Alexa Fluor 488®-labeled meditope-Fc (SEQ ID NO: 236) or 100 nM antibody alone (control) for 30 minutes at 37° C. in serum-free media. Nuclei of Raji-B cells were also stained with Hoechst 33342 (2 μg/mL final concentration for 20 minutes).
Cells were imaged with a confocal microscope using appropriate wavelength settings for pHrodo™-labeled antibodies, Alexa Fluor 488-labeled meditope-Fc, and Hoechst 33342-labeled nuclei. Z sectioning permitted visualization of the internalized materials and all quantitative measurements were taken at the same defined section height. Cells were visualized and quantified at each time point for each visualization event. Total fluorescence of each stain inside and outside of imaged cells were calculated using ImageJ analysis at a single time point of 30 minutes. Total staining for MOR-208 alone was calculated as 1797.71±194.97 (n=8). Total staining for MOR-208 bound to meditope-Fc was calculated as 4430.43±632.59 (n=8).

[3] = system: Meditope-enabled trastuzumab version 2; assay: SPR multivalent meditope valency test at varying ligand densities; type: binding; conditions: for Ka / t1/2: 37° C., 1:1 fit
Procedure: The low density channel was approximately 150 RU (FIG. 19A), the medium density channel was approximately 750 RU (FIG. 19B), and the high density channel was approximately 1500 RU (FIG. 19C).
Trivalent meditope (TVM) (SEQ ID NO: 231) concentrations were prepared as a 5-fold dilution series from 1 μM to 2.6 pM in HBS-EP+. Samples were flowed over all four channels at 30 μL/min at 37° C. Sensograms were double referenced to the blank immobilization on channel 1 and with two “0” concentration buffer blanks.
A control meditope peptide was run at the beginning and end of the experiment to assess for loss of surface activity during the experiment. Less than 5% decrease in signal was observed on the most dense ligand surface after the experiment was completed. Regeneration buffer for the experiment was a pulse of 10 mM glycine pH 3.0 with variable time from 2-10 seconds followed by a 30 sec pulse of running buffer HBS-EP+.
Data fits were performed using BiaEvaluation software with the 1:1 fit model. Data fit quality to the 1:1 binding model decreased as the surface density of ligand increased and the off rate was not well determined due to lack of curvature.

[4] = system: SKBR3 cells; assay: Microscopy of SKBR3 cells with labeled TVM and trastuzumab variants; type: cell-based
Procedure: TVM was labeled with NHS-Alexa Fluor 647 following the manufacturer's protocol (Thermo Fisher Scientific, Waltham Mass.) 0.1 M sodium bicarbonate buffer pH 8.0 at room temperature for 1 hour).

[5] = most densely immobilized surface

B1: BVM: bivalent meditope, peptide sequence of SEQ ID NO: 229 (protein)
chain: MGSSHHHHHHSSGLVPRGSHMGGGSWSHPQFEKGGGSGGGMSDSEVNQEAKPEVKPEVKPETHINLKVSDGSSEIFFKIKKTTPLRRLMEAFAKRQGKEMDSLRFLYDGIRIQADQTPEDLDMEDNDIIEAHREQIGGGGSAAPSSAPSPSAPCQFDLSTRRLSCGGASPAASPSAPSSPAPKAPSAAPSSAPSPSAPGGCQFDLSTRRLSCGGASPAASPSAPSSPAPK
modifications: (1)..(230) His6-SMT3-Bivalent meditope (BVM) sequence (Amino Acid)
binding (SPR) [1]: bound meditope enabled antibody trastuzumab antibodies

B2: MOR-208: Meditope-enabled MOR208 (CD-19 antibody), light chain SEQ ID NO: 226, heavy chain SEQ ID NO: 227, pHrodo labeled (protein)
light: DIVMTQSPAILSLSPGERATLSCRSSKSLQNVNGNTYLYWFQQKTNGSPRLLIYRMSNLNSGVPDRFSGSGSGTEFTLTISSLEPEDEADYYCIQHLEYPITFGAGTKLEIKRTVAAPSVFIFPPSDEQLKSGTASVVCLLNNFYPREAKVQWKVDNALQSGNSQESVTEQDSKDSTYSLSSTLTLSKADYEKHKVYACEVTHQGLSSPVTKSFNRGEC
heavy: EVQLVESGGGLVKPGGSLKLSCAASGYTFTSYVMHWVRQSPGKGLEWIGYINPYNDGTKYNEKFQGRVTISSDKSISTAYMELSSLRSEDTAIYYCARGTYYYGTRVFDYWGQGTLVTVSSASTKGPSVFPLAPSSKSTSGGTAALGCLVKDYFPEPVTVSWNSGALTSGVHTFPAVLQSSGLYSLSSVVTVPSSSLGTQTYICNVNHKPSNTKVDKKVEPKSCDKTHTCPPCPAPELLGGPDVFLFPPKPKDTLMISRTPEVTCVVVDVSHEDPEVQFNWYVDGVEVHNAKTKPREEQFNSTFRVVSVLTVVHQDWLNGKEYKCKVSNKALPAPEEKTISKTKGQPREPQVYTLPPSREEMTKNQVSLTCLVKGFYPSDIAVEWESNGQPENNYKTTPPMLDSDGSFFLYSKLTVDKSRWQQGNVFSCSVMHEALHNHYTQKSLSLSPGK
modifications: pHrodo label; (1)..(219) MOR-208 Light chain; (1)..(451) MOR-208 Heavy chain
total staining (total fluorescence, ImageJ) [2]: 1797.71±194.97

B3: TVM: trivalent meditope, peptide sequence of SEQ ID NO: 231, expressed in E. coli (protein)
chain: MGGGSWSHPQFEKGGGSGGGMSDSEVNQEAKPEVKPEVKPETHINLKVSDGSSEIFFKIKKTTPLRRLMEAFAKRQGKEMDSLRFLYDGIRIQADQTPEDLDMEDNDIIEAHREQIGGGGSAAPSSAPSPSAPCQFDLSTRRLSCGGASPAASPSAPSSPAPKAPSAAPSSAPSPSAPGGCQFDLSTRRLSCGGASPAASPSAPSSPAPKAPSAAPSSAPSPSAPGGCQFDLSTRRLSCGGSPSAPSSPSSPKLPETG
modifications: (1)..(258) His6-SMT-Trivalent meditope (TVM) sequence (Amino Acid)
Ka ([3]; density 150 RU): 8700 M⁻¹ s⁻¹ | t1/2 ([3]; density 150 RU): 0.4 h | Ka ([3]; density 750 RU): 10000 M⁻¹ s⁻¹ | t1/2 ([3]; density 750 RU): 1.3 h | Ka ([3]; density 1500 RU): 9800 M⁻¹ s⁻¹ | t1/2 ([3]; density 1500 RU): 2.4 h | half-life [3, 5]: 2.42 h | improvement of half-life over monovalent meditope [3, 5]: > 30 fold | binding (SPR) [1]: bound meditope enabled antibody trastuzumab antibodies | cell morphology and attachment ([4]; labeled TVM with meditope enabled antibody trastuzumab): rounded morphology and frequently detached from the surface of the coverslides | cell morphology and attachment ([4]; labeled TVM with parental trastuzumab): not observed
